The labels stand for the following.
T1: human FcγRIIb extracellular domain, C-terminal His-tag (human, UniProt P31994 43-217)
T1 construct: also called human FcgRIIb; FcgRIIb
T1 sequence: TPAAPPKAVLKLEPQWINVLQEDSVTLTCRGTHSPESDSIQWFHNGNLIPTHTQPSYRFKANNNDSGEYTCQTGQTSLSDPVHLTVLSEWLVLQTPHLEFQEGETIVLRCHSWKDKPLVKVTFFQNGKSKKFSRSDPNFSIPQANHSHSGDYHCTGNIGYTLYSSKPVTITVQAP

T2: cynomolgus monkey FcγRIIIaS extracellular domain, C-terminal His-tag (cynomolgus monkey, UniProt Q8SPW2 21-206 at identity 1.00))
T2 construct: also called cyno FcγRIIIaS; cynoFcγRIIIaS
T2 chain: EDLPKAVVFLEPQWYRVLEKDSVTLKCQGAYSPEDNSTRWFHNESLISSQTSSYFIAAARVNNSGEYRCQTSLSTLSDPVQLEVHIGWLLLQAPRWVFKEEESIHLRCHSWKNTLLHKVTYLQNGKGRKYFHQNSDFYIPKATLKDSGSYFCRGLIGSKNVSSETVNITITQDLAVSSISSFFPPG

T3: cynomolgus monkey FcγRIIa3 extracellular domain, C-terminal His-tag (cynomolgus monkey)
T3 construct: also called cyno FcγRIIa3; cynoFcgRIIa3
T3 chain: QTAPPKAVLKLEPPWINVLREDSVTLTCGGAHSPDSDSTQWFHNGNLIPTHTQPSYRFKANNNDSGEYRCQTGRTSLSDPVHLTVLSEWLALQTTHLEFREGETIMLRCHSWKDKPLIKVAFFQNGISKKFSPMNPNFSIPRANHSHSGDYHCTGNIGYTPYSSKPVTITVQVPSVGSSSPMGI

T4: cynomolgus monkey FcγRIIb extracellular domain, C-terminal His-tag (cynomolgus monkey)
T4 construct: also called cyno FcγRIIb; cynoFcγRIIb
T4 chain: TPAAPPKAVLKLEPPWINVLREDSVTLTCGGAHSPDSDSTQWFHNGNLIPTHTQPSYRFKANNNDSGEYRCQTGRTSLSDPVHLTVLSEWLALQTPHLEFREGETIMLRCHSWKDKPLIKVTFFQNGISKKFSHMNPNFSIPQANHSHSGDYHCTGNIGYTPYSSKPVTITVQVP

T5: human FcγRIIaH extracellular domain, C-terminal His-tag (human, UniProt P12318 34-217)
T5 construct: also called human FcγRIIa (type H); FcgRIIaH
T5 sequence: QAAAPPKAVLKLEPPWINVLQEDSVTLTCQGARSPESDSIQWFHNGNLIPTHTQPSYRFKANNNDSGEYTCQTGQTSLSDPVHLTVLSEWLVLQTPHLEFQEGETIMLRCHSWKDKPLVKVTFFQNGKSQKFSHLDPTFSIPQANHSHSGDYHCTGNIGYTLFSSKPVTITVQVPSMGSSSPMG

T6: cynomolgus monkey FcγRIIa2 extracellular domain, C-terminal His-tag (cynomolgus monkey)
T6 construct: also called cyno FcγRIIa2; cynoFcgRIIa2
T6 chain: T3 chain with I127K, K130N, P133H, R142Q

T7: human FcγRIIaR extracellular domain, C-terminal His-tag (human, UniProt P12318 34-217)
T7 construct: also called human FcγRIIa (type R); FcgRIIaR
T7 chain: T5 sequence with H134R

T8: cynomolgus monkey FcγRIIa1 extracellular domain, C-terminal His-tag (cynomolgus monkey)
T8 construct: also called cyno FcγRIIa1; cynoFcgRIIa1
T8 chain: T3 chain with T95P, A121T, S128A, P133H, N135D

B1: M103205H795-MY330/M103202L889-SK1 (antibody, human IgG1, kappa)
heavy: QVTLKESGPVLVKPTETLTLTCTVSGIDLSHDDISWVRQAPGKGLEWVGIISYAGSTYYASWAKGRLTISKDTSKNQVVLTMTNMDPVDTATYYCARGVPAYSHGGDLWGQGTLVTVSSASTKGPSVFPLAPSSKSTSGGTAALGCLVKDYFPEPVTVSWNSGALTSGVHTFPAVLQSSGLYSLSSVVTVPSSSLGTQTYICNVNHKPSNTKVDKKVEPKSCDKTHTCPPCPAPELWNGPSVFLFPPKPKDTLMISRTPEVTCVVVDVSEEDPEVKFNWYVDGVEVHNAKTKPREEQYNSTYRVVSVLTVLHQDWLNGKEYKCKVSNKALPKPIEKTISKAKGQPREPQVYTLPPSREEMTKNQVSLTCLVKGFYPSDIAVEWESNGQPENNYKTTPMVLDSDGSFFLYSKLTVDKSRWQQGNVFSCSVMHEALHNHYTQKSLSLSP
light: DIVMTQSPATLSLSPGERATLSCTSSQSVYHANWLSWFQQKPGQPPKLLIYWASTLAYGVPSRFSGSGSGTDFTLTISSLQPEDAATYYCAGGYGGGRYAFGQGTKVEIKRTVAAPSVFIFPPSDEQLKSGTASVVCLLNNFYPREAKVQWKVDNALQSGNSQESVTEQDSKDSTYSLSSTLTLSKADYEKHKVYACEVTHQGLSSPVTKSFNRGEC
notes: Substitutions introduced into M103205H795-SG1; expressed with M103202L889-SK1 as light chain
B2: M103205H795-MY538/M103202L889-SK1 (Table 19: L235W/G236N/H268D/Q295L/K326T/A330K) (antibody, human IgG1, kappa)
heavy: B1 heavy with E270D, Q297L, K328T, M398P
light: B1 light
notes: also called MY518 (as the text names this set of substitutions)
B3: M103205H795-MY440/M103202L889-SK1 (antibody, human IgG1, kappa)
heavy: B1 heavy with E270D, Q297L, M398P
light: B1 light
notes: as for B1
B4: M103205H795-MY434/M103202L889-SK1 (antibody, human IgG1, kappa)
heavy: B1 heavy with E270D, M398P
light: B1 light
notes: as for B1

For orientation: Kd means a measure of binding affinity in units of concentration.

Where a chain is given by its changes, count along the chain named. In names and notes the source's numbering stands.

T9 sequence (P08637 17-208 F176V): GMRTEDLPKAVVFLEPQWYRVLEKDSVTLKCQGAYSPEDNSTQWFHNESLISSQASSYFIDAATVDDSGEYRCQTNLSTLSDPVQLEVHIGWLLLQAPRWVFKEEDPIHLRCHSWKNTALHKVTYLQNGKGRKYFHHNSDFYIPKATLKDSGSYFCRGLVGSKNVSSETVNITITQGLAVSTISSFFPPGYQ

One assay addresses T9, human FcγRIIIaV extracellular domain, C-terminal His-tag (human, UniProt P08637 17-208).
T9 construct: also called human FcgRIIIaV; FcgRIIIaV
The experiment in a line: SPR (Biacore), antibody captured, FcgR analyte.
Take B1: the affinity, expressed as Kd, was 12000 nM.

On to B2, for which the Kd is 23000 nM.

Molecule B3 had a dissociation constant Kd of 27000 nM.

Regarding B4, binding was characterised by a dissociation constant (Kd) of 16000 nM.

The target of another assay is T1, human FcγRIIb extracellular domain, …. The experiment in a line: SPR (Biacore), antibody captured, FcgR analyte. (In general: SPR reads the build-up and loss of mass on a sensor chip optically.)
As to B1, binding was put at a Kd of 670 nM.

For the molecule B2, the dissociation constant (Kd) turned out to be 480 nM.

B3 had a Kd of 800 nM.

B4 had an equilibrium dissociation constant (Kd) of 1400 nM.

The target of a further assay is T2, cynomolgus monkey FcγRIIIaS …. The experiment in a line: SPR (Biacore), antibody captured, FcgR analyte.
Molecule B1 had a Kd of 6600 nM.

In turn, B2 returned a Kd of 4200 nM.

In turn, B3 had a Kd of 9300 nM.

In turn, B4 yielded a Kd of 11000 nM.

The next assay has as its target T3, cynomolgus monkey FcγRIIa3 …. The experiment in a line: SPR (Biacore), antibody captured, FcgR analyte.
B1: the Kd was 4700 nM.

Regarding B2, the Kd was 2400 nM.

On to B3, for which the affinity, expressed as Kd, was 48000 nM.

Take B4: the Kd is 64000 nM.

The target in another assay is T4, cynomolgus monkey FcγRIIb extracellular …. The experiment in a line: SPR (Biacore), antibody captured, FcgR analyte.
Molecule B1 gave a Kd of 610 nM.

In turn, B2 had a Kd of 260 nM.

In turn, B3 yielded a Kd of 460 nM.

As to B4, the Kd was 740 nM.

The next assay has as its target T5, human FcγRIIaH extracellular domain, …. The experiment in a line: SPR (Biacore), antibody captured, FcgR analyte.
B1: the Kd was 960 nM.

In turn, B2 came in with a dissociation constant (Kd) of 850 nM.

Turning to B3, the affinity, expressed as Kd, was 910 nM.

Regarding B4, the Kd was found to be 16000 nM.

A further assay has as its target T6, cynomolgus monkey FcγRIIa2 …. The experiment in a line: SPR (Biacore), antibody captured, FcgR analyte.
B1 registered a dissociation constant (Kd) of 2200 nM.

As for B2, the Kd was 900 nM.

In turn, B3 displayed a Kd of 1800 nM.

Molecule B4 returned a Kd of 2400 nM.

For another assay, the target named is T7, human FcγRIIaR extracellular domain, …. The experiment in a line: SPR (Biacore), antibody captured, FcgR analyte.
B1 yielded a Kd of 900 nM.

B2 registered a Kd of 670 nM.

In turn, B3 gave a Kd of 11000 nM.

The molecule B4 displayed a Kd of 1900 nM.

The target of a further assay is T8, cynomolgus monkey FcγRIIa1 …. The experiment in a line: SPR (Biacore), antibody captured, FcgR analyte.
B1: the Kd is 2200 nM.

With B2, the Kd turned out to be 890 nM.

B3: the Kd was 1600 nM.

On to B4, for which the Kd came to 2900 nM.
